Source: US20130217685, “COMPOUNDS FOR MODULATING RNA BINDING PROTEINS AND USES THEREFOR” (UNIVERSITY OF MASSACHUSETTS, published 2013)

Target: T1, MEX-5 TZF domain (236-350) (Caenorhabditis elegans, UniProt Q9XUB2 Q9XUB2:236-350)
T1 sequence: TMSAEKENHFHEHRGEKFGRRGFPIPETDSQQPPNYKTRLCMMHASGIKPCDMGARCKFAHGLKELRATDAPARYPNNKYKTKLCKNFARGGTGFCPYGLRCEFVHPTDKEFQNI
Test: EMSA; 120 nM protein, 2-3 nM RNA; compound dose response (compound E IC50 2.0 uM)
Details: tags: N-terminal MBP (pMal-c, NEB); ORFeome clone, Open Biosystems; label: 3'-fluorescein
Protocol: A further dose response assay was performed on select compounds of the invention as described below. A sub-saturating concentration of MEX-5 or POS-1 (120 nM) was equilibrated with limiting fluorescein labeled RNA (2-3 nM, TCR2 RNA or MEX-3 UTR fragment RNA respectively) in the presence of varying concentrations of compound. Following equilibration, the reactions were loaded onto a 5% slab polyacrylamide gel and subjected to electrophoresis for about 1 hour to separate protein-RNA complex from free RNA. The gel was scanned on a FUJI FLA-5000 imager, and the fraction of bound RNA determined by dividing the intensity of the bound RNA by the intensity of the bound RNA plus the free RNA. The fraction of […] was plotted as a function of compound concentration and fit to a sigmoidal dose response function in order to determine the IC₅₀, the concentration that gives half maximal inhibition.

B1: TCR2 (ssRNA)
RNA: UUUCUUUAUAACUUGUUACAAUUUUUGAAA
binding result: binds
